Source: article PMC8872386 (Chemical Science, 2021)
Ends that are not written are not given here.

What was measured:
Assay in all cases: fluorescence polarisation
[1] = target: Sgo1 peptide (residues 446–466) bearing fluorescein (UniProt Q5FBB7)
[2] = target: chemically synthesized full-length heterochromatin protein 1α without PTMs (21) (UniProt P45973 1-191)
[3] = target: recombinant HP1α (UniProt P45973 1-191)
recombinant HP1α, sequence (P45973 whole entry): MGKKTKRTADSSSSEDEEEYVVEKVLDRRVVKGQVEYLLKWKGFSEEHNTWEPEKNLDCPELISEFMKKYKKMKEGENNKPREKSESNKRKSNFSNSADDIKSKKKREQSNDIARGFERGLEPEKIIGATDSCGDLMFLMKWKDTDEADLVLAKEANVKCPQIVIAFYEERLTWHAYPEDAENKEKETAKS

chemically synthesized full-length heterochromatin protein 1α without PTMs (21), sequence (P45973 whole entry): as above

Molecule | Kd [1] | Kd [2] | Kd [3]
chemically synthesized HP1α ubiquitinated at K154 (21f) (from UniProt P45973 1-191; P0CG48 1-76) | 1870 nM |  | 
NVSLYPVVKIRRLSLSPKKNK (peptide, UniProt Q5FBB7 446-466, looked up, also: fluorescein, position not given here) [Sgo1 peptide (residues 446–466) bearing fluorescein] |  | 470 nM | 510 nM
